21 molecules from PMC7442819, “Taf14 recognizes a common motif in transcriptional machineries and facilitates their clustering by phase separation” (Nature Communications, 2020) can be followed below.

Values joined by “and” are separate entries in the source; they are usually repeats but may differ in a detail not shown here. Identical values can stand only once.

Sequences and labels used below:
B12: Taf14ET (Taf14_(174–244)) (domain or fragment, Saccharomyces cerevisiae, UniProt P35189 174-244, looked up)
chain: KGSVDLEKLAFGLTKLNEDDLVGVVQMVTDNKTPEMNVTNNVEEGEFIIDLYSLPEGLLKSLWDYVKKNTE
notes: Taf14, Saccharomyces cerevisiae, ET domain, residues 174-244; 15N- or 15N/13C-labelled for NMR; also called Taf14 ET domain; 15N-Taf14ET; source: E. coli Rosetta, purified (Ni-NTA, on-beads digestion, SEC)
B13: GST-Taf14_(174–244) (domain or fragment, Saccharomyces cerevisiae, UniProt P35189 174-244, looked up)
chain: KGSVDLEKLAFGLTKLNEDDLVGVVQMVTDNKTPEMNVTNNVEEGEFIIDLYSLPEGLLKSLWDYVKKNTE
notes: Taf14, Saccharomyces cerevisiae, ET domain, residues 174-244; also called GST-Taf14ET; GST-tagged Taf14ET; source: E. coli Rosetta, purified (Ni-NTA, eluted as GST-fused protein, SEC); not shown: 6*His-GST, N-terminal, kept

For data set [1], the target named is B12. Nature of the data set: ITC; peptide at 1.0 mM in the syringe titrated into Taf14ET at 0.1 mM in the cell; 20 mM phosphate pH 7.0, 100 mM NaCl, 2 mM DTT; 25 °C; one binding site model. The conditions noted are these: both partners purified. (ITC needs no label: the signal is the heat of the interaction.)
Data set [2] concerns the target T1, Taf14ET (Taf14_(174–244)) (Saccharomyces cerevisiae, UniProt P35189 174-244).
T1 chain: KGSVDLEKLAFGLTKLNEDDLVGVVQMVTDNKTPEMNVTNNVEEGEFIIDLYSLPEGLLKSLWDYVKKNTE
Put plainly: ITC.

The target in the data set “GST-Taf14_(174–244)” is B13. Put plainly: pull-down; GST-tagged ET domain (25 μg) and binding partner (50 μg) with glutathione–Sepharose 4B beads; 25 mM Tris-HCl pH 8.0, 150 mM NaCl, 2 mM DTT; 4 °C, 3 h; SDS-PAGE. The note with it: both partners purified.
In data set [3] the target is T2, Taf14ET (Taf14_(174–244)) (Saccharomyces cerevisiae), P35189.
T2 chain: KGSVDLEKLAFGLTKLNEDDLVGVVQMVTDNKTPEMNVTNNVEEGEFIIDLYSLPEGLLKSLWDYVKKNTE
Nature of the data set: ITC. The note with it: modification not given.

In another data set the target is Taf14ET F220R (Saccharomyces cerevisiae, UniProt P35189 174-244, F220R). Nature of the data set: ITC.
The target of data set [4] is T1, Taf14ET (Taf14_(174–244)). Nature of the data set: ITC.
In another data set the target is T3, Taf14ET F220A (Saccharomyces cerevisiae).
T3 chain: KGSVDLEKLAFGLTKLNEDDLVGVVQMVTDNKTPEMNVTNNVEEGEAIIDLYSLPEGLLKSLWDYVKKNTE
Put plainly: ITC.

A further data set concerns the target Taf14ET I222R (Saccharomyces cerevisiae, UniProt P35189 174-244, I222R). Nature of the data set: ITC.
The target in data set [5] is T1, Taf14ET (Taf14_(174–244)). Nature of the data set: ITC.
The next data set deals with Sth1EBM L1204A (Saccharomyces cerevisiae, UniProt P32597 1183-1240, L1204A). Nature of the data set: ITC.
Another data set concerns the target Sth1EBM L1210A (Saccharomyces cerevisiae, UniProt P32597 1183-1240, L1210A). Nature of the data set: ITC.
Another data set addresses Sth1EBM I1208A (Saccharomyces cerevisiae, UniProt P32597 1183-1240, I1208A). Put plainly: ITC.
In a further data set the target is Sth1EBM K1207E (Saccharomyces cerevisiae, UniProt P32597 1183-1240, K1207E). Nature of the data set: ITC.
Another data set deals with Sth1EBM K1209E (Saccharomyces cerevisiae, UniProt P32597 1183-1240, K1209E). Put plainly: ITC.
Another data set has as its target Sth1EBM V1206A (Saccharomyces cerevisiae, UniProt P32597 1183-1240, V1206A). Nature of the data set: ITC.
Data set [6] deals with the molecule itself. Put plainly: 15N-1H HSQC at several concentrations; apo 15N-Taf14ET at 0.05, 0.1, 0.2 and 0.5 mM.
Another data set has as its target T4, Sth1_(1183–1359) (Saccharomyces cerevisiae, UniProt P32597 1183-1359).
T4 construct: source: E. coli Rosetta, purified
T4 sequence (looked up): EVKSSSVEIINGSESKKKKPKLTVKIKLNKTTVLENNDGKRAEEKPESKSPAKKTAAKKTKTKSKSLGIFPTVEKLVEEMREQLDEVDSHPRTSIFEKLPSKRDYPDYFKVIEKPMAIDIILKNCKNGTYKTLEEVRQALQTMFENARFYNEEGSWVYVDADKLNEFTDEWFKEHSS
Put plainly: pull-down; GST-tagged ET domain (25 μg) and binding partner (50 μg) with glutathione–Sepharose 4B beads; 25 mM Tris-HCl pH 8.0, 150 mM NaCl, 2 mM DTT; 4 °C, 3 h; SDS-PAGE. The conditions noted are these: both partners purified.

B1: Taf2_(1393–1406) (peptide, UniProt P23255 1393-1406, looked up)
peptide: RSFMVKIRTKNDAK
notes: Taf2, Saccharomyces cerevisiae, residues 1393-1406; source: synthetic peptide (Scilight-Peptide and GenScript) for NMR
One may read the Kd as the free concentration of one partner at which half of the binding sites on the other are occupied at equilibrium, for simple one-to-one binding. In the case of B1, the binding result in data set [1] is recorded as “binds”. The molecule also came in with a Kd in data set [2] of 0.8 µM.

As for KKKPKLTVKIKLNKTTVLENNDGKRAE (domain or fragment, Saccharomyces cerevisiae, UniProt P32597 1199-1225, looked up, source: E. coli Rosetta, purified) [Sth1_(1199–1225)], the binding result with GST-Taf14_(174–244) is “binds”.

As to SPPCYIIDHIPGHSLLASIKLPGKVNTKEE [Snf5EBM L787A], in data set [3], the dissociation constant Kd was found to be 41.5 µM.

B2: Tfg1 fragment containing both motifs (domain or fragment)
chain: DTLSKSKRSSPKKQQKKATNAHVHKEPTLRVKSIKNCVIILKGDKKILKSFPEGEWNPQTTKAVDSSNNASNTVPSPIKQEEGLNSTVAEREETPAPTITEKDIIEAIGDGKVNIKEFGKFIRRKYPGAENKKLMFAIVKKLCRKVGNDHMELKKE
Consider B2, for which the Kd in data set [1] was around 0.33 µM.

B3: Sth1EBM (Sth1_(1183–1240)) (domain or fragment, Saccharomyces cerevisiae, UniProt P32597 1183-1240, looked up)
chain: EVKSSSVEIINGSESKKKKPKLTVKIKLNKTTVLENNDGKRAEEKPESKSPAKKTAAK
notes: source: E. coli Rosetta, purified (Ni-NTA, on-beads digestion, SEC)
With B3, the dissociation constant (Kd) with Taf14ET F220R is 3.5 µM; in data set [4] it was 0.05 µM; in the data set with Taf14ET F220A it was 0.68 µM; in the data set with Taf14ET I222R, 54.6 µM; in [1], around 0.055 µM; in [5], 0.372 µM and 0.194 µM.

B4: Sth1EBM K1209E (domain or fragment, Saccharomyces cerevisiae, UniProt P32597 1183-1240, looked up)
chain: EVKSSSVEIINGSESKKKKPKLTVKIELNKTTVLENNDGKRAEEKPESKSPAKKTAAK
notes: source: E. coli Rosetta, purified (same protocol as the wild type)
For B4, the “fold increase of KD against wild-type Sth1EBM” value (shortened to “fold increase of KD”) in data set [1] amounted to 79 fold.

B5: Sth1EBM L1210A (domain or fragment, Saccharomyces cerevisiae, UniProt P32597 1183-1240, looked up)
chain: EVKSSSVEIINGSESKKKKPKLTVKIKANKTTVLENNDGKRAEEKPESKSPAKKTAAK
notes: as for B4
Consider B5, for which the binding result in [1] was “binds”.

B6: Sth1EBM I1208A (domain or fragment, Saccharomyces cerevisiae, UniProt P32597 1183-1240, looked up)
chain: EVKSSSVEIINGSESKKKKPKLTVKAKLNKTTVLENNDGKRAEEKPESKSPAKKTAAK
notes: also called Sth1^I1208A; source: E. coli Rosetta, purified (same protocol as the wild type)
Take B6: in data set [1], the “fold increase of KD” value was 270 fold.

B7: Sth1EBM K1207E (domain or fragment, Saccharomyces cerevisiae, UniProt P32597 1183-1240, looked up)
chain: EVKSSSVEIINGSESKKKKPKLTVEIKLNKTTVLENNDGKRAEEKPESKSPAKKTAAK
notes: as for B4
B7: the “fold increase of KD” value in data set [1] was determined as 154 fold.

B8: Sth1EBM L1204A (domain or fragment, Saccharomyces cerevisiae, UniProt P32597 1183-1240, looked up)
chain: EVKSSSVEIINGSESKKKKPKATVKIKLNKTTVLENNDGKRAEEKPESKSPAKKTAAK
notes: as for B4
In the case of B8, in data set [1], the binding result was “binds”.

B9: Sth1EBM V1206A (domain or fragment, Saccharomyces cerevisiae, UniProt P32597 1183-1240, looked up)
chain: EVKSSSVEIINGSESKKKKPKLTAKIKLNKTTVLENNDGKRAEEKPESKSPAKKTAAK
notes: as for B4
As to B9, the binding result in data set [1] is recorded as “binds”.

On to DSKLNAKITLKQYHVKRLKKLIN [Ino80EBM I373A], for which the Kd in data set [3] came out at 3.86 µM.

B10: Tfg1 motif from 685 to 700 (peptide, UniProt P41895 685-700, looked up)
peptide: EAIGDGKVNIKEFGKF
notes: Tfg1, Saccharomyces cerevisiae, second motif, residues 685-700
Turning to B10, the Kd in [1] was around 9 µM.

B11: Tfg1 motif from 613 to 628 (peptide, UniProt P41895 613-628, looked up)
peptide: IKNCVIILKGDKKILK
notes: Tfg1, Saccharomyces cerevisiae, first motif, residues 613-628
B11 displayed a Kd in data set [1] of around 17 µM.

On to B12, for which the equilibrium dissociation constant (Kd) with Sth1EBM L1204A was 2.06 µM; in the data set with Sth1EBM L1210A, 1.14 µM; in the data set with Sth1EBM I1208A, 13.4 µM; with Sth1EBM K1207E, 3.94 µM and 7.69 µM; in the data set with Sth1EBM K1209E, 7.69 µM and 3.94 µM; with Sth1EBM V1206A, 2.04 µM. Besides, the binding result in data set [6] was “binds”.

For the molecule B13, the binding result with Sth1_(1183–1359) is given as “binds”.

For the molecule SPPCYIIDHIPGHSLLLSAKLPGKVNTKEE [Snf5EBM I789A], in [3], the equilibrium dissociation constant (Kd) was 189 µM.

On to DSKLNIKITAKQYHVKRLKKLIN [Ino80EBM L377A], for which the dissociation constant Kd in [3] turned out to be 3.87 µM.

B14: Snf5_(771–800) (peptide, UniProt P18480 771-800, looked up)
peptide: SPPCYIIDHIPGHSLLLSIKLPGKVNTKEE
notes: also called Snf5EBM; source: synthetic peptide (Scilight-Peptide and GenScript) for NMR
As to B14, in data set [1], the binding result is reported as “binds”. In data set [2], this molecule gave an equilibrium dissociation constant (Kd) of 2.48 µM.

B15: Sas3_(111–129) (peptide, UniProt P34218 111-129, looked up)
peptide: SEELKVRIKYDSIKFFNFE
notes: Sas3, Saccharomyces cerevisiae, residues 111-129; source: synthetic peptide (Scilight-Peptide and GenScript) for NMR
Consider B15, for which the binding result in data set [1] is reported as “binds”. In data set [2], this molecule had a Kd of 31.3 µM.

B16: Ino80_(368–390) (peptide, UniProt P53115 368-390, looked up)
peptide: DSKLNIKITLKQYHVKRLKKLIN
notes: Ino80, Saccharomyces cerevisiae, residues 368-390; also called Ino80EBM; source: synthetic peptide (Scilight-Peptide and GenScript) for NMR
Regarding B16, the binding result in data set [1] was “binds”. In [2], this molecule returned a Kd of 0.25 µM.
